The record followed here is patent US20230086069A1 (SYSTIMMUNE, published 2023).

Assay [1] has as its target T1, human CD19 protein (R&D Biosystems Cat #9269-CD-050) (human, UniProt P15391 20-291).
T1 sequence (looked up): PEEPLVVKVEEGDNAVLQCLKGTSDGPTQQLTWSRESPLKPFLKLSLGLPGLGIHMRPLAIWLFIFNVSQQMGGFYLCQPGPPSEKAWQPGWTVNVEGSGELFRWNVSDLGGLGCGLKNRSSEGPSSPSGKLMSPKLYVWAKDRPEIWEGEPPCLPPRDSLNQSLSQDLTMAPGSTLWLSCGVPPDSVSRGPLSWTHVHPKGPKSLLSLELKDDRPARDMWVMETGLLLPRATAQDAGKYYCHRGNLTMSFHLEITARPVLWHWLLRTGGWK
The experiment in a line: BLI (Octet), antibody on anti-human Fc biosensors, CD19 protein as analyte; human CD19. How it is done: (§1) The purified SI-63C1, SI-63C2, and SI-34C1 antibodies were tested for their binding affinity using biolayer interferometry (ForteBio OctetRED 384). The antibodies were bound to anti-human Fc biosensors, and human CD19 protein (R&D Biosystems Cat #9269-CD-050) was used as the analyte in a 4-point series of 2-fold dilutions with the highest concentration starting at 200 nM.
(BLI is a label-free optical method that tracks binding on a fibre tip over time.)

In assay [2] the target is T1, human CD19 protein (R&D Biosystems Cat …). The experiment in a line: BLI (Octet), antibody on anti-human Fc biosensor, human CD19 as analyte. The protocol: as §1
For assay [3], the target named is T2, cynomolgus CD19 on cells (CD20+ B cells of cynomolgus PBMC) (cynomolgus).
T2 construct: whole, on cells; also called Cynomolgus CD20+
The assay is described as follows: flow cytometry, dose response on cynomolgus CD20+ lymphocytes. How it is done:
(§2) To determine if the humanization alters the cross reactivity, the flow cytometry was carried out. The SI-63C2 antibody was used to bind the peripheral blood mononuclear cells derived from human, cynomolgus, and rhesus, respectively. Lymphocytes were gated based on forward and side scatter, followed by single cells based on the ratio of forward scatter signal height and area. Viable CD20+ B-cell and CD20− lymphocytes are gated based on the exclusion of membrane permeable amine reactive dye and the binding level of CD20 antibody (clone 2H7, Biolegend). Binding of the labelled antibody was determined as the geometric mean fluorescence intensity (gMFI) of the cell population for the fluorescent conjugate's emission channel. As shown in the histogram analysis in FIG. 4, the SI-63C2 antibody binds to CD20+ B cells from human, cynomolgus, and rhesus (4A) but not to their CD20− lymphocytes (4B).

For assay [4], the target named is T3, rhesus CD19 on cells (CD20+ B cells of rhesus PBMC) (rhesus, UniProt F7F486 20-557).
T3 construct: also called Rhesus CD20+
T3 sequence: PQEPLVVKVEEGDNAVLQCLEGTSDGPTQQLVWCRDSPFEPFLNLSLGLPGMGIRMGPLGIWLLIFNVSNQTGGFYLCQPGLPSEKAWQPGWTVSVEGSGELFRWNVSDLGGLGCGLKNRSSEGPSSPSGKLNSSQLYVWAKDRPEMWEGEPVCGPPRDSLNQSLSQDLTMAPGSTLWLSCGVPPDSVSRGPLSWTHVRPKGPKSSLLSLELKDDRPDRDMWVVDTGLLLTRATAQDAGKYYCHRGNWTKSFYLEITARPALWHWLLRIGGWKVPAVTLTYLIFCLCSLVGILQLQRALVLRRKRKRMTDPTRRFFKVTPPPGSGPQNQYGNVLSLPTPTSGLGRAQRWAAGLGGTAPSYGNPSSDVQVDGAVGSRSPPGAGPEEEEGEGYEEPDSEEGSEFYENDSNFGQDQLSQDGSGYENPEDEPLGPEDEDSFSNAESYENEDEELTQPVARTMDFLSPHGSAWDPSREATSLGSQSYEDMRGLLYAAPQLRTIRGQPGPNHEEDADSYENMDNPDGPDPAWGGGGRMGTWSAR
The assay is described as follows: flow cytometry, dose response on rhesus CD20+ lymphocytes. How it is done:
as §2
(In flow cytometry, cells or beads pass a laser one at a time.)

Assay [5] addresses T4, human CD19 on cells (CD20+ B cells of human PBMC; Raji lymphoma cells) (human, UniProt P15391 20-556).
T4 construct: whole, on cells; also called Human CD20+
T4 sequence (looked up): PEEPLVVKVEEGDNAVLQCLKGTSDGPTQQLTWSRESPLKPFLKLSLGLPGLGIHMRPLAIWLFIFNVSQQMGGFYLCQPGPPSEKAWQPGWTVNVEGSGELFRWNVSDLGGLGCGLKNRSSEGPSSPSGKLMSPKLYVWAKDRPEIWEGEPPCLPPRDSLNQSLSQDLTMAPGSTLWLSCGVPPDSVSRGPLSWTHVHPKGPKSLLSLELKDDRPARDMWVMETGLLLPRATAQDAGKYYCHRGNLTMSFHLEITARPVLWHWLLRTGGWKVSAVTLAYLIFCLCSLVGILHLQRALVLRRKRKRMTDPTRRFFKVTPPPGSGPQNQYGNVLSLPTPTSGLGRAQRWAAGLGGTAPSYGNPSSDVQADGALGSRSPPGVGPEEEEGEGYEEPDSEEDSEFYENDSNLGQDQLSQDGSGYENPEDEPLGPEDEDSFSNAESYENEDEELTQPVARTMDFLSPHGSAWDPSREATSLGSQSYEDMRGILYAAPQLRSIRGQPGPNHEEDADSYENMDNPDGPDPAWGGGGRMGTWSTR
The assay is described as follows: flow cytometry, dose response on human CD20+ lymphocytes; human CD20+ lymphocytes. How it is done:
as §2

The target in assay [6] is T4, human CD19 on cells (CD20+ B cells of …). The assay is described as follows: flow cytometry, dose response on human CD20+ lymphocytes. How it is done:
as §2

B1: SI-63C2 (recombinant mAb with H1 humanized anti-CD19 variable sequence) (antibody, V domains shown)
VH: QVTLKESGPGLVQPGQTLRLTCAFSGFSLSTSGMGVGWIRQPPGKGLEWLAHIWWDDDKRYNPALKSRLTISKDTSKNQVYLQMNSLDAEDTAVYYCARMELWSYYFDYWGQGTLVTVSS
VL: ENVLTQSPASLSASPGERVTITCSASSSVSYMHWYQQKPGQAPKLWIYDTSKLASGVPSRFSGSGSGNDHTLTISSMEPEDFATYYCFQGSVYPFTFGQGTKLEIKR
notes: H1 VH/VL on human kappa and human IgG CH1-Fc; also called SI-huCD19; humanized BU12, H1
For the molecule B1, the Kd – broadly, the concentration at which binding is half-saturated – worked out at 3.8 nM in assay [1] and 3.77 nM in assay [2]. Moreover, the koff (commonly a measure of how fast the partners let go of each other) in assay [2] was 0.000229 s⁻¹. Also, in assay [2], the kon – broadly, the rate constant with which the complex forms – was determined as 60800 M⁻¹ s⁻¹. For the same molecule, the EC50 (as a rule, the concentration that produces a half-maximal response) in assay [3] came to 2.9 µg/mL; in assay [4], 0.666 µg/mL; in assay [5], 0.0397 µg/mL.

B2: SI-63C1 (recombinant chimeric mAb with BU12 mouse parental anti-CD19 variable sequence) (antibody, V domains shown)
VH: QVTLKESGPGILQPSQTLSLTCSFSGFSLSTSGMGVGWIRQPSGKGLEWLAHIWWDDDKRYNPALKSRLTISKDTSSNQVFLKIASVDTADTAAYYCARMELWSYYFDYWGQGTTLTVSS
VL: ENVLTQSPAIMSASPGEKVTMTCSASSSVSYMHWYQQKSSTSPKLWIYDTSKLASGVPGRFSGSGSGNSHFLTISSMEAEDVATYYCFQGSVYPFTFGSGTKLEIKR
notes: Mouse BU12 variable regions on human kappa and human IgG CH1-Fc; also called BU12-chimeric; SI-63C1-AF647
In turn, B2 showed a Kd in assay [2] of 3.06 nM. In assay [2], this molecule came in with a koff of 0.000209 s⁻¹. Moreover, in assay [2], the kon came to 68100 M⁻¹ s⁻¹. The values for the EC50 in assay [6], in assay [3] and in assay [4] were 0.231 µg/mL, 0.909 µg/mL and 0.991 µg/mL, respectively.
